Patent US20030199036

Target: S. pombe cdc25 tagged with a triple tandem copy of the hemagglutinin epitope (UniProt P06652)

Schizosaccharomyces pombe pub1 (untagged)
accumulation of cdc25 higher molecular weight (ubiquitinated) species in mts2 mutants, pub1 wild type (SP 1212) against pub1 disruption (SP 1213), Western blot: We estimate that disruption of pub1 reduces the accumulation of cdc25 higher molecular weight species at least 10 fold.
